Test system: MS2 coat protein
Assay: apparent KD of MS2 coat protein; designed switch direction (-1 OFF switch, 1 ON switch): -1; higher = weaker reporter binding
Outline: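 Designed RNA switches were transcribed on Illumina chips by stalled E. coli RNA polymerase and titrated with SNAP-549-labelled MS2 coat protein from 0.7 or 1.5 nM, doubling to 3 µM. Step length ran from 0.8–1.5 h at the lowest concentration to 10–20 min at the highest. The apparent KD is the median over clusters for each design, from curve-fitted normalised cluster fluorescence.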

[1] = input ligand: microRNA oligo, concentration not stated
[2] = Eterna round: R95, input ligand: microRNA oligo, concentration not stated
[3] = Eterna round: R95, input ligand: FMN 200 uM
[4] = Eterna round: R95, input ligand: none

Sequence	apparent KD of MS2 coat protein (input ligand: FMN 200 uM) [nM]	apparent KD of MS2 coat protein (input ligand: none) [nM]	apparent KD of MS2 coat protein [2] [nM]	further results
CUGAACCCGGUAGGAUAUAUUGUGGGCGGGCGUGGAACGACAUGAGGAUCACCCAUGUAAUUGAGGUAGAAGGGCCGAGAGAUU [Excl-NG2-LRO15] (Eterna round: R96, puzzle: Exclusion NG 2)	37.9	46.4		apparent KD of MS2 coat protein [1]: 23 nM
AGCUGUGGCCGAGGAUAUCUAAACCUUCAAACCGAAAUAUAAUCGGACAUGAGGAUCACCCAUGUAGAGAAGGCGGUCUCAGCA [Eli eng2 - 034] (Eterna round: R96, puzzle: Exclusion NG 2)				apparent KD of MS2 coat protein [1]: 9.91 nM
AUAUAGUCAGGAUAUCGAAGUGAGUGUUGGUUUGUAAGGUACGAGAAGGGACAUGAGGAUCACCCAUGUAGGAA [JR_Exclusion4)Sub003] (puzzle: Exclusion 4)			42.7	
GUUAUCGCAGGAUAUUAAUACUUGUACAUGAGGAUCACCCAUGUUUAUUGGGAUUAAGAAUAAGAAGGGCGAUGAA [JR_Ex5_Sub003] (Eterna round: R97, puzzle: Exclusion 5)	52.8	27.8		
GGUGGACAUGAGGAUCACCCAUGUGAGGAUAUCGGCUGGCUACUCGCUGACGGCUGCUCGAGAAGGCGCAUUGU [Exclusion 1 V88] (puzzle: Exclusion 1)			41.7	
CCAGGCUGUGUGAGGAUAUGCUGGUCCUUGGAUCAGCAGAAGGCACAUGAGGAUCACCCAUGUGAGUAGCUUGG [JL bmx4 3.27] (puzzle: Brourd's mod of Exclusion 4)			15.7	
AAUUAGUAUGUGAGGAUAUUGAUGUAAUGACGGUUUAAGAAGGCACAUGAGGAUCACCCAUGUAGGUGCUCACG [JR_BMEx4_Sub007] (Eterna round: R97, puzzle: Brourd's mod of Exclusion 4)	380	70.4		
AAGAAGAUAGGAUAUACGAGGAGAGAAGAGAAGAAAGGAGGACAUGAGGAUCACCCAUGUAGAAGGAUCAGGAA [JR_Exclu2_Sub061] (puzzle: Exclusion 2)			41	apparent KD of MS2 coat protein [3]: 50.2 nM; apparent KD of MS2 coat protein [4]: 40.5 nM
UCCCGGGUAGGAUAUGCUAGGGUAUGUUCACUUGAUUUAGGACAUGAGGAUCACCCAUGUAGAAGGGCCCGUCG [Eternabot (L1) Solution 25] (Eterna round: R97, puzzle: Exclusion 2)	286	459		
CAAGAAUCUAUAUAAAGGCACAUGAGGAUCACCCAUGUGGUCCGUAAAAUCAUGCGACAAGCCAUUUGCUCGUCGUG [Eternabot (L2) Solution 30] (Eterna round: R97, puzzle: Sensor, turn-off variant 1)	33.2	37.6		
CCGGAAAUACAGGAUAUAGGAGUCAAUAGACUCCUAGAAGGGUAUACAUGAGGAUCACCCAUGUGUCCUACCGG [Fiskers Ex 6 - 66] (puzzle: Exclusion 6)			25.1	
AAUACUAACACGAAAGUGUUAGUAAAAUAAGCUUGUGGUACAUGAGGAUCACCCAUGUCCUCAUAAGCUCGUCUUAU [Mat - Sensor v3 - Turn-off var 2 - D43] (puzzle: Sensor v3, turn-off variant 2)			75.4	apparent KD of MS2 coat protein [3]: 23 nM; apparent KD of MS2 coat protein [4]: 21.4 nM
CGAUGUUAUGUCAGGAUAUGCAUUGCGAAAGCGAUGCAGAAGGGACAUGAGGAUCACCCAUGUCCUAACCAUCG [Omei A 6] (puzzle: Brourd's mod of Exclusion 4)			11.6	
AAAUUAGCAAGUAGGUCCGACAUGAGGAUCACCCAUGUAAUCUGAAAUUACGCUGCAUGAAAGUGCGCUCGUCUUAG [Sensor-V1 #10] (Eterna round: R97, puzzle: Sensor, turn-off variant 1)	111	168		
GCGAAAGCAAGCAAGUGAAACAUGAGGAUCACCCAUGUCCUCGUUUGCUCGUCUUAUAAGCUAUGCGAAAGCAUAGC [Sensor 3, v1 - 4] (puzzle: Sensor v3, turn-off variant 1)			105	apparent KD of MS2 coat protein [3]: 12.9 nM; apparent KD of MS2 coat protein [4]: 10.2 nM
UAUAUAUAGUAAGGAUAUGUAAUUAUUUUACAAACAGAAGGUACUGACAUGAGGAUCACCCAUGUUUUAGUGUGGGCAUGUAGA [JMF's solution 46] (Eterna round: R96, puzzle: Exclusion NG 1)				apparent KD of MS2 coat protein [1]: 39.7 nM
UUUAAUGGAAUUAAGAUCACAUGAGGAUCACCCAUGUAUAUAUAGGAUAUCAGCUCGUUUAGAGCUGAGAAGGAUAUAUACAUA [ExNG3/6-B2] (Eterna round: R96, puzzle: Exclusion NG 3)	90.1	356		apparent KD of MS2 coat protein [1]: 119 nM
UGCUACGGAGGAUAUACAUGAGGAUCACCCAUGUGAUAGAUUAUCGCGAAAGCGUAAUGUAGAAGGCCGUAGCU [jl-ex3-4.11 jl mod] (Eterna round: R97, puzzle: Exclusion 3)	556	54.4		

Sequence	apparent KD of MS2 coat protein (input ligand: FMN 200 uM) [nM]	apparent KD of MS2 coat protein (input ligand: none) [nM]	apparent KD of MS2 coat protein [2] [nM]	further results
AAUUCGGCAGGAUAUACAUGAGGAUCACCCAUGUAAAUUUUUCGUUUAACUUGAAUGUGUAGAAGGGCCAUUAA [Ex3 #63] (Eterna round: R97, puzzle: Exclusion 3)	27.6	28.8		
UCUCGCUGGCGAGGAUAUCCUGUGCGGUUCCGGCUCGUGUCUGUUACAUGAGGAUCACCCAUGUGGGAGAAGGUGCCUGUGGCC [Design 95] (Eterna round: R96, puzzle: Exclusion NG 2)	21.1	21		apparent KD of MS2 coat protein [1]: 15.6 nM
UGCUGACGAGGAUAUACAUGAGGAUCACCCAUGUUGGUCAAGCGACUUCGGUCGCAAUGUAGAAGGCGUCAGCA [E3/8-A5] (Eterna round: R97, puzzle: Exclusion 3)	290	513		
GGGCAGUCAGGAUAUACAUGAGGAUCACCCAUGUUGAGAUGUGAAAGGGCGGGAGUAGGUAGAAGGGACGAGAG [JR_Exclu3_Sub041] (puzzle: Exclusion 3)			22.8	apparent KD of MS2 coat protein [3]: 27.4 nM; apparent KD of MS2 coat protein [4]: 29.9 nM
AUAAUGUGAGGAUAUCACGCCCAAAUAAAUGGGCGAAAUAAUGAGAAGGCACAUGAGGAUCACCCAUGUCCGAA [EX4 A.25] (Eterna round: R97, puzzle: Exclusion 4)	180	33.5		
AUCCUUAACAAGGAUAUCGGGCGGGUUUUUGUUUGAGAAGGUGUGACAUGAGGAUCACCCAUGUGGCGCGUGGG [-22, -20.4 kcal, A 22%] (Eterna round: R97, puzzle: Exclusion 6)	285	887		
GGAAGGCGAGGAUAUACAAUAAAGAAAGAGAAAGACGUGAGACAUGAGGAUCACCCAUGUAGAAGGUGCGGAGA [AK-MS2ROC-r4-exclusion2-13] (Eterna round: R97, puzzle: Exclusion 2)	37.3	34.3		
GGUCCUGAUGAUUUCCUAUACAUGAGGAUCACCCAUGUAUGUUUAUUUUGUUUUUAGCUUUUUGGUCGUCAAUAAUA [Mod-Hoo-honey-3] (Eterna round: R97, puzzle: Sensor, turn-off variant 1)	43.3	43.4		
CGUAUGUCAGGAUAUCGUGCAUACAACGAAAGUUCUAUGUGCGAGAAGGGACAUGAGGAUCACCCAUGUCUUCG [Omei Ex4 A13] (Eterna round: R97, puzzle: Exclusion 4)	42.8	23.6		
AAUAACAAGCAGAUCCUAAACAUGAGGAUCACCCAUGUGCUCGUCUUGUAAAGUACUAUCACGAAAGUGAUAGUACA [Sensor 3, v1 - 59] (puzzle: Sensor v3, turn-off variant 1)			186	apparent KD of MS2 coat protein [3]: 67.5 nM; apparent KD of MS2 coat protein [4]: 76.5 nM
CGGUGCUUGUGGAAACAUGAGGAUCACCCAUGUUGAGUUAGCGAGGAUAUCGGUAACACAUGUCACGAGAAGGCGCGAACCAGA [Ex NG3 #33] (Eterna round: R96, puzzle: Exclusion NG 3)	39.6	16.2		apparent KD of MS2 coat protein [1]: 18.1 nM
AAAUUAGCAAGUAGAUCCGACAUGAGGAUCACCCAUGUAAUCUAAUAUUACGCUGCAUGAGAGUGCGCUCGUCUUAG [Sensor-V1 #16] (Eterna round: R97, puzzle: Sensor, turn-off variant 1)	211	238		
UUAAUGUGAGGAUAUCAGGUGUGCUAGAGUACUGGUACAUCUGAGAAGGCACAUGAGGAUCACCCAUGUUCUUC [Mat - Exclusion 4 - Mod of JL - D54] (puzzle: Exclusion 4)			34.3	
UAUAUGUCAGGAUAUCGAUUGGAACAGAAUUUAACAAUGGUCGAGAAGGGACAUGAGGAUCACCCAUGUUCAAC [JR_Ex4_Sub020] (Eterna round: R97, puzzle: Exclusion 4)	27.3	21.9		
AGCUGUGGCCGAGGAUAUCUAUUAAUCCAAACCGAAAUAUAAUCGGACAUGAGGAUCACCCAUGUAGAGAAGGCGGUCUCAGCA [Eli eng2 - 077] (Eterna round: R96, puzzle: Exclusion NG 2)				apparent KD of MS2 coat protein [1]: 53.5 nM
UGUCAAGCAGGAUAUGCACGUAAUAACAUGAGGAUCACCCAUGUGACCGAUUUAUAUUCUGCAGAAGGGCUUGUUU [LRO-Excl5-19-mod of Erxesoan mod by Eli Fisker] (Eterna round: R97, puzzle: Exclusion 5)	109	26.7		
GCCCAGCUAGGAUAUCGCACUGCAGACAUGAGGAUCACCCAUGUGAUGAGGUCUGAAUUCCGAGAAGGAGCAUGGA [Isedzaqu] (puzzle: Exclusion 5)			22.1	apparent KD of MS2 coat protein [3]: 66.6 nM; apparent KD of MS2 coat protein [4]: 26.7 nM

— the supplement of paper PMC9170038
